Holding throughout (assay): SEC; protein at 500 ug/mL incubated 3 hours at 30°C, then Superdex 75 in 50 mM Tris-HCl pH 8.0, 150 mM NaCl, 5% (v/v) glycerol, calibrated with molecular mass standards; dimer to monomers
Background: Size exclusion chromatography separates by hydrodynamic size, large species first.

For test [1], the target named is human triosephosphate isomerase N15D mutant (human).
Test [2] deals with human triosephosphate isomerase N15D/N71D double mutant (human).
Test [3] concerns the target human triosephosphate isomerase N71D mutant (human).

One may read the stoichiometry N as the number of molecules, sites or subunits per partner or assembly.

Consider “human triosephosphate isomerase N15D mutant (enzyme)”, for which, in test [1], the stoichiometry N is 2. On to “human triosephosphate isomerase N15D/N71D double mutant (enzyme)”, for which the stoichiometry N in test [2] is 2. Consider “human triosephosphate isomerase N71D mutant (enzyme)”, for which the stoichiometry N in test [3] came to 2.

For the origin of these results see publication PMC4401446.
